# Reference: patent US6645728
# T1: kinase-deficient IKKα (K44M), Q60680
# T1 chain: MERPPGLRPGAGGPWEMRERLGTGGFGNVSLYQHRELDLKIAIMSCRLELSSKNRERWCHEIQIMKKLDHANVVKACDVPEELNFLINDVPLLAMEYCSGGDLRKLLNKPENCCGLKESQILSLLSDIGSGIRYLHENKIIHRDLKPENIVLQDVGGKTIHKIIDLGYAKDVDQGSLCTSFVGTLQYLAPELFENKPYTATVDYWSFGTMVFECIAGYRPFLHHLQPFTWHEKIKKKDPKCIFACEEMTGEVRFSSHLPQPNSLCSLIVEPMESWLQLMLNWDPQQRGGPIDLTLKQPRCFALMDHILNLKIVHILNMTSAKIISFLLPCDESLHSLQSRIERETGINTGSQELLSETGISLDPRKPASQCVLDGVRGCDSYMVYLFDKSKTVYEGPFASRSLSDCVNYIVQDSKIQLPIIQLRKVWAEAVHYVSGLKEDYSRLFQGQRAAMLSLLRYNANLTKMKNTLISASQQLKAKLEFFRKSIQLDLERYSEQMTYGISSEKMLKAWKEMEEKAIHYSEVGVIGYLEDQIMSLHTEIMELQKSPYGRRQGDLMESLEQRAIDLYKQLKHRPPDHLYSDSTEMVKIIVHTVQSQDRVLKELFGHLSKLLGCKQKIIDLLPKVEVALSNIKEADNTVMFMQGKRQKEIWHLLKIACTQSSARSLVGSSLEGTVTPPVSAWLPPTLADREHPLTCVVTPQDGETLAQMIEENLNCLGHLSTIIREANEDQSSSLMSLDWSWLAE
# T2: IKKα (as present in transfected 293 cells)
# T2 sequence (O15111 1-745, species assumed, looked up): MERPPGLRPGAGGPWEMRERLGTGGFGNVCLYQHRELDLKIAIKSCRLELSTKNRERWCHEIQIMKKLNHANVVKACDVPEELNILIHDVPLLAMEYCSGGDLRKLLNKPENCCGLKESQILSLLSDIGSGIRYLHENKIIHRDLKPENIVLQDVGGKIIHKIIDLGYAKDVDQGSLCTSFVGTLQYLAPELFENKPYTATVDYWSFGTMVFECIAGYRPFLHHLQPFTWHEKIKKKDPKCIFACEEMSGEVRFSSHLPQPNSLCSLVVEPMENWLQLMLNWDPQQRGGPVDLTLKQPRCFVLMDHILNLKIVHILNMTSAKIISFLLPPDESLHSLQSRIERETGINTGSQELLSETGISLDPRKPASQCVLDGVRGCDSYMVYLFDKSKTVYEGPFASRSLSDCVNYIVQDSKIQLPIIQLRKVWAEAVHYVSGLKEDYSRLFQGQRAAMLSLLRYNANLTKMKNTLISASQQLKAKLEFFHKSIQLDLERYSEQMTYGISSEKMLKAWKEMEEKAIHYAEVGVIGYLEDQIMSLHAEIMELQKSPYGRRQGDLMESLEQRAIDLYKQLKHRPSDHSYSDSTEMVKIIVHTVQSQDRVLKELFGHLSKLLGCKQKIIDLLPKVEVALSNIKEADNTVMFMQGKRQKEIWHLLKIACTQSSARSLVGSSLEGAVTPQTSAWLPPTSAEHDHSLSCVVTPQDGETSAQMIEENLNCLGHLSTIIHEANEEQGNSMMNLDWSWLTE
# B1: Myc-NIK (protein)
# chain: MAVMEMACPGAPGSAVGQQKELPKPKEKTPPLGKKQSSVYKLEAVEKSPVFCGKWEILNDVITKGTAKEGSEAGPAAISIIAQAECENSQEFSPTFSERIFIAGSKQYSQSESLDQIPNNVAHATEGKMARVCWKGKRRSKARKKRKKKSSKSLAHAGVALAKPLPRTPEQESCTIPVQEDESPLGAPYVRNTPQFTKPLKEPGLGQLCFKQLGEGLRPALPRSELHKLISPLQCLNHVWKLHHPQDGGPLPLPTHPFPYSRLPHPFPFHPLQPWKPHPLESFLGKLACVDSQKPLPDPHLSKLACVDSPKPLPGPHLEPSCLSRGAHEKFSVEEYLVHALQGSVSSSQAHSLTSLAKTWAARGSRSREPSPKTEDNEGVLLTEKLKPVDYEYREEVHWATHQLRLGRGSFGEVHRMEDKQTGFQCAVKKVRLEVFRAEELMACAGLTSPRIVPLYGAVREGPWVNIFMELLEGGSLGQLVKEQGCLPEDRALYYLGQALEGLEYLHSRRILHGDVKADNVLLSSDGSHAALCDFGHAVCLQPDGLGKSLLTGDYIPGTETHMAPEVVLGRSCDAKVDVWSSCCMMLHMLNGCHPWTQFFRGPLCLKIASEPPPVREIPPSCAPLTAQAIQEGLRKEPIHRVSAAELGGKVNRALQQVGGLKSPWRGEYKEPRHPPPNQANYHQTLHAQPRELSPRAPGPRPAEETTGRAPKLQPPLPPEPPEPNKSPPLTLSKEESGMWEPLPLSSLEPAPARNPSSPERKATVPEQELQQLEIELFLNSLSQPFSLEEQEQILSCLSIDSLSLSDDSEKNPSKASQSSRDTLSSGVHSWSSQAEARSSSWNMVLARGRPTDTPSYFNGVKVQIQSLNGEHLHIREFHRVKVGDIATGISSQIPAAAFSLVTKDGQPVRYDMEVPDSGIDLQCTLAPDGSFAWSWRVKHGQLENRP
# B2: NIK-S549A (protein)
# chain: MAVMEMACPGAPGSAVGQQKELPKPKEKTPPLGKKQSSVYKLEAVEKSPVFCGKWEILNDVITKGTAKEGSEAGPAAISIIAQAECENSQEFSPTFSERIFIAGSKQYSQSESLDQIPNNVAHATEGKMARVCWKGKRRSKARKKRKKKSSKSLAHAGVALAKPLPRTPEQESCTIPVQEDESPLGAPYVRNTPQFTKPLKEPGLGQLCFKQLGEGLRPALPRSELHKLISPLQCLNHVWKLHHPQDGGPLPLPTHPFPYSRLPHPFPFHPLQPWKPHPLESFLGKLACVDSQKPLPDPHLSKLACVDSPKPLPGPHLEPSCLSRGAHEKFSVEEYLVHALQGSVSSSQAHSLTSLAKTWAARGSRSREPSPKTEDNEGVLLTEKLKPVDYEYREEVHWATHQLRLGRGSFGEVHRMEDKQTGFQCAVKKVRLEVFRAEELMACAGLTSPRIVPLYGAVREGPWVNIFMELLEGGSLGQLVKEQGCLPEDRALYYLGQALEGLEYLHSRRILHGDVKADNVLLSSDGSHAALCDFGHAVCLQPDGLGKALLTGDYIPGTETHMAPEVVLGRSCDAKVDVWSSCCMMLHMLNGCHPWTQFFRGPLCLKIASEPPPVREIPPSCAPLTAQAIQEGLRKEPIHRVSAAELGGKVNRALQQVGGLKSPWRGEYKEPRHPPPNQANYHQTLHAQPRELSPRAPGPRPAEETTGRAPKLQPPLPPEPPEPNKSPPLTLSKEESGMWEPLPLSSLEPAPARNPSSPERKATVPEQELQQLEIELFLNSLSQPFSLEEQEQILSCLSIDSLSLSDDSEKNPSKASQSSRDTLSSGVHSWSSQAEARSSSWNMVLARGRPTDTPSYFNGVKVQIQSLNGEHLHIREFHRVKVGDIATGISSQIPAAAFSLVTKDGQPVRYDMEVPDSGIDLQCTLAPDGSFAWSWRVKHGQLENRP
# B3: NIK-T559A (protein)
# chain: MAVMEMACPGAPGSAVGQQKELPKPKEKTPPLGKKQSSVYKLEAVEKSPVFCGKWEILNDVITKGTAKEGSEAGPAAISIIAQAECENSQEFSPTFSERIFIAGSKQYSQSESLDQIPNNVAHATEGKMARVCWKGKRRSKARKKRKKKSSKSLAHAGVALAKPLPRTPEQESCTIPVQEDESPLGAPYVRNTPQFTKPLKEPGLGQLCFKQLGEGLRPALPRSELHKLISPLQCLNHVWKLHHPQDGGPLPLPTHPFPYSRLPHPFPFHPLQPWKPHPLESFLGKLACVDSQKPLPDPHLSKLACVDSPKPLPGPHLEPSCLSRGAHEKFSVEEYLVHALQGSVSSSQAHSLTSLAKTWAARGSRSREPSPKTEDNEGVLLTEKLKPVDYEYREEVHWATHQLRLGRGSFGEVHRMEDKQTGFQCAVKKVRLEVFRAEELMACAGLTSPRIVPLYGAVREGPWVNIFMELLEGGSLGQLVKEQGCLPEDRALYYLGQALEGLEYLHSRRILHGDVKADNVLLSSDGSHAALCDFGHAVCLQPDGLGKSLLTGDYIPGAETHMAPEVVLGRSCDAKVDVWSSCCMMLHMLNGCHPWTQFFRGPLCLKIASEPPPVREIPPSCAPLTAQAIQEGLRKEPIHRVSAAELGGKVNRALQQVGGLKSPWRGEYKEPRHPPPNQANYHQTLHAQPRELSPRAPGPRPAEETTGRAPKLQPPLPPEPPEPNKSPPLTLSKEESGMWEPLPLSSLEPAPARNPSSPERKATVPEQELQQLEIELFLNSLSQPFSLEEQEQILSCLSIDSLSLSDDSEKNPSKASQSSRDTLSSGVHSWSSQAEARSSSWNMVLARGRPTDTPSYFNGVKVQIQSLNGEHLHIREFHRVKVGDIATGISSQIPAAAFSLVTKDGQPVRYDMEVPDSGIDLQCTLAPDGSFAWSWRVKHGQLENRP
# B4: NIK-T552A (protein)
# chain: MAVMEMACPGAPGSAVGQQKELPKPKEKTPPLGKKQSSVYKLEAVEKSPVFCGKWEILNDVITKGTAKEGSEAGPAAISIIAQAECENSQEFSPTFSERIFIAGSKQYSQSESLDQIPNNVAHATEGKMARVCWKGKRRSKARKKRKKKSSKSLAHAGVALAKPLPRTPEQESCTIPVQEDESPLGAPYVRNTPQFTKPLKEPGLGQLCFKQLGEGLRPALPRSELHKLISPLQCLNHVWKLHHPQDGGPLPLPTHPFPYSRLPHPFPFHPLQPWKPHPLESFLGKLACVDSQKPLPDPHLSKLACVDSPKPLPGPHLEPSCLSRGAHEKFSVEEYLVHALQGSVSSSQAHSLTSLAKTWAARGSRSREPSPKTEDNEGVLLTEKLKPVDYEYREEVHWATHQLRLGRGSFGEVHRMEDKQTGFQCAVKKVRLEVFRAEELMACAGLTSPRIVPLYGAVREGPWVNIFMELLEGGSLGQLVKEQGCLPEDRALYYLGQALEGLEYLHSRRILHGDVKADNVLLSSDGSHAALCDFGHAVCLQPDGLGKSLLAGDYIPGTETHMAPEVVLGRSCDAKVDVWSSCCMMLHMLNGCHPWTQFFRGPLCLKIASEPPPVREIPPSCAPLTAQAIQEGLRKEPIHRVSAAELGGKVNRALQQVGGLKSPWRGEYKEPRHPPPNQANYHQTLHAQPRELSPRAPGPRPAEETTGRAPKLQPPLPPEPPEPNKSPPLTLSKEESGMWEPLPLSSLEPAPARNPSSPERKATVPEQELQQLEIELFLNSLSQPFSLEEQEQILSCLSIDSLSLSDDSEKNPSKASQSSRDTLSSGVHSWSSQAEARSSSWNMVLARGRPTDTPSYFNGVKVQIQSLNGEHLHIREFHRVKVGDIATGISSQIPAAAFSLVTKDGQPVRYDMEVPDSGIDLQCTLAPDGSFAWSWRVKHGQLENRP
# What was measured:
# [1] = target: T1, kinase-deficient IKKα (K44M), Q60680
# [2] = target: T2, IKKα (as present in transfected 293 …)
protein,measurement,setting,value
B1,phosphorylation of coimmunoprecipitated IKKα (K44M) in immunocomplex kinase reaction,[1],wild-type NIK and mutant NIK-S549A and NIK-T552A effectively phosphorylated the coimmunoprecipitated IKKα (K44M) protein in vitro
B2,phosphorylation of coimmunoprecipitated IKKα (K44M) in immunocomplex kinase reaction,[1],wild-type NIK and mutant NIK-S549A and NIK-T552A effectively phosphorylated the coimmunoprecipitated IKKα (K44M) protein in vitro
B3,IKKα activity (in vitro kinase reaction on GST-IκBα (1-62)),[2],the mutant NIK-T559A failed to induce IKKα activity
same,phosphorylation of coimmunoprecipitated IKKα (K44M) in immunocomplex kinase reaction,[1],failed to phosphorylate the coprecipitating IKKα
B4,phosphorylation of coimmunoprecipitated IKKα (K44M) in immunocomplex kinase reaction,[1],wild-type NIK and mutant NIK-S549A and NIK-T552A effectively phosphorylated the coimmunoprecipitated IKKα (K44M) protein in vitro
